Experimental data as given in the nanobody polyreactivity screen of Harvey et al. (2022).

Experiment: yeast display, Sf9 membrane polyspecificity reagent, FACS + sequencing; frameworks hold sequencing errors
Summary of the method: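 A synthetic nanobody library was expressed on Saccharomyces cerevisiae BJ5465 by galactose induction for 36–48 hours. The library was stained for 1 hour at 4 °C with 10% biotinylated, detergent-solubilized Sf9 membrane reagent and enriched with streptavidin microbeads before FACS. Low and high (top ~1%) gates were set on anti-HA fluorescence for expression and streptavidin fluorescence for reagent binding, and each polyreactivity label reflects the gate of origin.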
In the case of “QVQLVESGGGLVQAGGSLRLSCAASGYIFTYYAMGWYRQAPGKERELVAAISGSDGNTYYADSVKGRFTISRDNAKKTDYLEMISLKPEDTAVYYCAKSGGLTFRSQRYDYWGQGTQVNVSS”, the “polyreactivity (PSR sort gate)” value is reported as “low polyreactivity”. In the case of “QVQLVESGGGLVQAGGSLRLSGAASGSSFLRNAMGWSRQAPGKERELVATISTGSGRTYYADSVKGRFTISRDNAKNTVYLQMTSLKPEDTAVYYCAASRTLRKHRYEYWGQGTKVTVSS”, the “polyreactivity (PSR sort gate)” value is reported as “high polyreactivity”. With “QVQLVESGGGLVQAGGSLRLSCAASGFISTPYAIGWYRQAPGKERELVAAIDISGGRTYYADSVKGRFTISRDNAKNTVYLQMNSLKPEDTAVYDCAAQLVSSYYAWYRTYYYWGQGTQVTVSS” the “polyreactivity (PSR sort gate)” value was “high polyreactivity”. For “QVQLVESGGGLVQAGGSLRLSCAASGRTFAIYAMGWYRPAPGKEREFVAAISWSGGDTYYADSVKGRFTISRDNAKNTVYLQMNSLKPEDTAVYYCAARDYDYEGRDLQYELDYWGQGTQVTVSS”, the “polyreactivity (PSR sort gate)” value was “low polyreactivity”. With “QVQLVESGGGLVQAGGSLRLSCAASGRTFWSNAMGWYRQAPGKERELVADITLSGGRTYYADSVKGRFTISRDNAKNTVYLHMNILKPEDTAVYYCAASATPSGVGMDYWGQGTQVTVSS” the “polyreactivity (PSR sort gate)” value was “low polyreactivity”. For “QVQLVESGGGLVQAGGSLRLSCAAYYAMGWYRQAPGKERELVAAISSTGRTNYADSVKGRFTISRDYAKNTVYLQMNSLKPEDTAVYYCNAGDPSGMDYWGQGTQVTVSS”, the “polyreactivity (PSR sort gate)” value was “low polyreactivity”. For “QVQLVESGGGLVQAGGSLRLTCAASGSTFSPYAMGWYRQATGKERELVAAISASGGGTYYADSVKGRFTISRDYAKNTVYLQMNRLIPVDTAVYYCARDYGWDISKGRYGYWGQGTQVTVSS”, the “polyreactivity (PSR sort gate)” value was “low polyreactivity”. For “QDQHVESGGGLVQAGGSLRLSCAASGSTFGDNAMGWYRQAPGKERELVAAISRGGRTYYADSVKGRFTISRDNAKNTVYLQMNSLKPEDTAVYYCAATSAYRGYWVLRGLSYDYWGQGTQVTVSS”, the “polyreactivity (PSR sort gate)” value was “high polyreactivity”. In the case of “QVQLVESGGGLVQAGGSLRLSCAASGRIFYLYAMGWYRQAPGKERELVARITSGSGTYYADSVKGRFTISRDNAKNTVYLQMNSLKPEDTAVYYCAAREPGVGYVGHYTGLDYWGQGTQVTVSS”, the “polyreactivity (PSR sort gate)” value is reported as “low polyreactivity”. For “QVQLVESGGGLVQAGGSLRLSCAASGSIFSKYAMGWYRQAPGKERELVAAISISDGNTYYADSVKGRFTISRDNAKNTVYLQMNSLKPEDTAVYYCATVGSEDGDPGFDYWGQGTQVTVSS”, the “polyreactivity (PSR sort gate)” value was “low polyreactivity”. With “QVQLVESGGGLVQAGGSLRLICAASGFTFDENAMGWYRQAPGINYSGASTYYADSVKGRFTISRDNAKNTVYLQMISLKPEDTAVYYCAADYETGAVSILDDYWGQGTQVTVSS” the “polyreactivity (PSR sort gate)” value was “low polyreactivity”. For “QVQLVESGGGLVQAGGSLRLSCAASGFTFFHYAMGWYRQATGKEREFVAAINTRGSRTYYADSVKGRFTISRDNAKNTVYLQMNSLKPEDTAVYYCAADSVQVYAWQYYYWGQGTQVTVSS”, the “polyreactivity (PSR sort gate)” value was “high polyreactivity”. In the case of “QFQLVESGGGLVQAGGSLRLSCAASGSTFNYNAMGWYRQAPGKERELVAAISSSGGSTYYADSVKGRITISRDNAKNTVYLQMNSLKPEDTAVYSCATGGSSRVRTEGDYWGQGTQVTVSS”, the “polyreactivity (PSR sort gate)” value is reported as “low polyreactivity”. With “QVQLVESGGGLVQAGGSLRLSCAASGITLSYNVMGWYRQEPGKEREFVAAITGGRTYYADSVKGRFTISRDNAKNTVYLQMNSLKPEDTAVYYCAADAPGHEYYYWGQGTQVTVSS” the “polyreactivity (PSR sort gate)” value was “high polyreactivity”. In the case of “QVQLVESGGGLVQAGGSLRLSCAASGSIFRNYAMGWYRQAPGKERELVAAISRTTRTYYADSVKGRFTISRDNAKNTVYLQMNSLKPEDTAVYYCAADYVYAGFWLYYWGQGTQVTVSS”, the “polyreactivity (PSR sort gate)” value is reported as “high polyreactivity”. For “QVQLVESGGGLVQAGGSLRLSCAPSRRIFSIYALGSYRQAPGKESELVAAIRWSGGSTYYADSVKGRFTISRDKEKNTVYLQMNSLTPEDTAVYYCNRYYQSYYGWTGPYGYWGQGTQVTVSS”, the “polyreactivity (PSR sort gate)” value was “high polyreactivity”. With “QGQLVESGGGVVQAGGSLRLSSAASRRIFYSYPLGWYRPAPGKERELVAAISSSGGITYYADSVKGRFTISRDNAKNTGSLELNSLKPEDTAVYYCAARRRYKSGYWGQGTQVTVSS” the “polyreactivity (PSR sort gate)” value was “high polyreactivity”. With “QVQLVESCGGLVQAGGSLRLSCAASGRIFSYNPMGWYRQAPGKERELVATITSGDSTNYADSVKGRFTISRDNSKNSVYLQMNSLKQEDTAVYYCATDIYGLPVDYWGQGTQVSVSS” the “polyreactivity (PSR sort gate)” value was “low polyreactivity”. For “QVQLVESGGGLVQAGGSLRLSCAASGSIIVRYAMGWYRQAPGKERELVATITFRDTSTYYADSVKGRFTISRDNAKNTVYLQMNSLKPEDTAVYYCAAVRADLWDIARYDYWGQGTQVTVSS”, the “polyreactivity (PSR sort gate)” value was “low polyreactivity”. In the case of “QVQLVESGGGLVQAGGSLRLSCAASGRIFKLYAMGWYRQAPGKERELVAAITRRGGSTSYADSVKGRFTISRDNAKNTVYLQMNSLKPEDTAVYYCNARSSETWHGDYWGQGTQVTVSS”, the “polyreactivity (PSR sort gate)” value is reported as “high polyreactivity”. For “QVQLVDSGGGLVQAGGSLRLSCAASGRTFRLNDMGWYRQAPGKDRELVAAITRSGGSTYYADSVKGRFTISRDNAKNTVYFQMNSLKPEDTAVYYCNAVRSRYYDDYDYWGQGTQVTVSS”, the “polyreactivity (PSR sort gate)” value was “high polyreactivity”. With “QVQLVESGGGLVQAGGSLRLSCAACGSTFHWNTMVWYRQAPGKERELVAAITYSGGRTYYADSVKGRFTISRDNAKNTVYLQMNSLKPEDTAVYYCAARYWRGSVTSYYYWGQGTQVTVSS” the “polyreactivity (PSR sort gate)” value was “high polyreactivity”. For “QVQLVESVRGLDQAGGSLRLSCAASGSIFDSNAMGSYRQATGKERELVAAITGSGTSTYYADSVKGRFTISRDNAKNTVYLQMNILKPEDTAVYYCARDSLQVFYTYGSDDYWGQGTQVTVSS”, the “polyreactivity (PSR sort gate)” value was “low polyreactivity”. With “QVQLVESGGGLVQAGGSLRLSCAASGFNFGYYAMGWYRQAPGKERELVAAITSRGGSTYYADSVKGRFTISRDNAKNTDYLQMNSLKPEDTAVYYLAAYSQYLKRDYWGQGTQVTVSS” the “polyreactivity (PSR sort gate)” value was “high polyreactivity”. In the case of “QVQLVESGGGLVQAGGSLRLSCAASGRIFQWYAMGWNRQAPGKERELVAAISWRGGSTYYADSVKGRFTISRDNAKNTVYLQMNSLKPEDTAVYYCNAVRRASSGYDYWGHGTQVTVSS”, the “polyreactivity (PSR sort gate)” value is reported as “high polyreactivity”. In the case of “QVQLVESGGGLVQAGGSLRLSCAASGRIFFRYAMGWYRQAPGKEREFVAAISCTGGSTYYADSVKGRFTISRDNAKNTVYLQMNSLKPEDTAVYYCAASVVSRPTYYAYYYWGQGTQVTVSS”, the “polyreactivity (PSR sort gate)” value is reported as “high polyreactivity”. With “QVQLVESGGGLVQAGGSLRLSCAASGRIFVRYTMGWYRQAPGKERELVAAITKRGGSTYYADSVKGRFTISRDNAKNTVYLQMNSLKPEDTAVYYCATDGLGYNRPQDEYWGLGTQVTVSS” the “polyreactivity (PSR sort gate)” value was “high polyreactivity”. In the case of “QVQLVESGGGLVQAGGSLRLSCAASGSIFVYYAMGWYRQAPGKERELVAGISRTGGRTYYADSVKGRFTISRDNAKITVYLQMNSLKPEDTAVYYCAAVSYYKSYGEFDYWGQGTQVTVSS”, the “polyreactivity (PSR sort gate)” value is reported as “high polyreactivity”. With “QVQLVESGGGLVQAGGSLRLSCAASGSTFLNYVMGWYRQAPGKERELVATINSGDSTNYADSVKGRFTISRDNAKNTVYLQMNSLKPEDTAVYYCAAEGNYWVDYWGQGTQVTVSS” the “polyreactivity (PSR sort gate)” value was “low polyreactivity”. For “QVQLVESGGGIVQAGGSLRLSCAASGSTFSYYDMGWYRQAPGKERELVAAISWNGGTTYYADSVKGRFTISRDNAKNTVYLQMNSLKPEDTAVYYCAATWDFYWAPYDSWGQGTQVTVSS”, the “polyreactivity (PSR sort gate)” value was “low polyreactivity”. With “QVQLVESGGGLVQAGGSLRLSCAASGRIFAFYAMGWYRQAPGKEREFVAAISWSGGSTYYADSVKGRFTISRDNAKNTVYLQMNSLKPEDTAVYYCAARSRVRHSGMNYWGQGTQVTVSS” the “polyreactivity (PSR sort gate)” value was “high polyreactivity”. In the case of “QVQLVETGGGLVQAGGSLRLSCAASGIFVSYAMGWYRQAPGKERELVAAIRYSGDSTYYADSVKGRFTISRDNAKNTVYLQMNSLKPEDTAVYYCAATKGWSRYEYWGQGTQVTVSS”, the “polyreactivity (PSR sort gate)” value is reported as “low polyreactivity”.
